Blank lines part the entries; values can stand above or below the binder they belong to.
Key:
[1] = biological target: T1, O9-bN; test: two-hybrid library CCNG1;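 further: natural log of median RNA to DNA barcode read ratio; higher means stronger binding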
T1 chain: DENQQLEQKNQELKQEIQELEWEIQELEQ

[2] = biological target: T2, O5-bN; test: two-hybrid library CCNG1;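 further: natural log of median RNA to DNA barcode read ratio; higher means stronger binding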
T2 chain: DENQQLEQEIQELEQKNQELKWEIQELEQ

[3] = biological target: T3, O3-bN; test: two-hybrid library CCNG1;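 further: natural log of median RNA to DNA barcode read ratio; higher means stronger binding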
T3 chain: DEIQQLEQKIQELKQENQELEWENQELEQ

[4] = biological target: T4, O8-bN; test: two-hybrid library CCNG1;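 further: natural log of median RNA to DNA barcode read ratio; higher means stronger binding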
T4 chain: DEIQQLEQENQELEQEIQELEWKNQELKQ

[5] = biological target: T5, O4-bN; test: two-hybrid library CCNG1
T5 chain: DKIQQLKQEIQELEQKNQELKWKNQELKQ

[6] = biological target: T6, O7-bN; test: two-hybrid library CCNG1
T6 chain: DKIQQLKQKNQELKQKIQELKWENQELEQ

[7] = biological target: T7, O6-bN; test: two-hybrid library CCNG1
T7 chain: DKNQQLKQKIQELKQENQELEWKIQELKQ

[8] = biological target: T8, O16-bN; test: two-hybrid library CCNG1
T8 chain: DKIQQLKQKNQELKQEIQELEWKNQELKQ

[9] = biological target: T9, O2-bN; test: two-hybrid library CCNG1
T9 chain: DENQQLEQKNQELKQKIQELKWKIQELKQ

[10] = biological target: T10, O5-AA; test: two-hybrid library CCmax; conditions: mean of both orientations
T10 chain: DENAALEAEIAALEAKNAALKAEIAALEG

[11] = biological target: T11, P10-AA; test: two-hybrid library CCmax; conditions: mean of both orientations
T11 chain: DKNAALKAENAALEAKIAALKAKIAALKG

[12] = biological target: T12, O6-AA; test: two-hybrid library CCmax; conditions: mean of both orientations
T12 chain: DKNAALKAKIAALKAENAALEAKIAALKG

[13] = biological target: T13, P9-AA; test: two-hybrid library CCmax; conditions: mean of both orientations
T13 chain: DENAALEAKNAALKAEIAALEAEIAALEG

[14] = biological target: T14, O8-AA; test: two-hybrid library CCmax; conditions: mean of both orientations
T14 chain: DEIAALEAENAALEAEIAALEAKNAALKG

[15] = biological target: T15, O4-AA; test: two-hybrid library CCmax
T15 chain: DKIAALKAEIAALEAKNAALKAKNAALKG

[16] = biological target: T16, O7-AA; test: two-hybrid library CCmax; conditions: mean of both orientations
T16 chain: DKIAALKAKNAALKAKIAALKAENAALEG

[17] = biological target: T17, P7bHq; test: two-hybrid library CCNG1
T17 chain: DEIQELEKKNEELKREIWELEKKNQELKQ

[18] = biological target: T18, P9bHq; test: two-hybrid library CCNG1
T18 chain: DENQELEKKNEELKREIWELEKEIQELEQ

[19] = biological target: T19, P8bHq; test: two-hybrid library CCNG1
T19 chain: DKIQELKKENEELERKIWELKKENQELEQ

[20] = biological target: T20, 4H575-bN; test: two-hybrid library CCNG1
T20 chain: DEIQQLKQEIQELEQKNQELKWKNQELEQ

[21] = biological target: T21, 4H855-bN; test: two-hybrid library CCNG1
T21 chain: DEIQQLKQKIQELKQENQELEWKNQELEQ

[22] = biological target: T22, 4H2702-bN; test: two-hybrid library CCNG1
T22 chain: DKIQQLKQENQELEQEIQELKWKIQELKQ

[23] = biological target: T23, 4H4073-bN; test: two-hybrid library CCNG1
T23 chain: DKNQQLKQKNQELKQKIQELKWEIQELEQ

[24] = biological target: T24, 4H968-bN; test: two-hybrid library CCNG1
T24 chain: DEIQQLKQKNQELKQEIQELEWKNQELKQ

[25] = biological target: T25, 4H797-bN; test: two-hybrid library CCNG1
T25 chain: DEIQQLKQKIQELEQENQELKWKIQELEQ

[26] = biological target: T26, 4H918-bN; test: two-hybrid library CCNG1
T26 chain: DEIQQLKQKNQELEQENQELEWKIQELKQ

[27] = biological target: T27, 4H953-bN; test: two-hybrid library CCNG1
T27 chain: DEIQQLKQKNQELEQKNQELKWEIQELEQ

[28] = biological target: T28, 4H346-bN; test: two-hybrid library CCNG1
T28 chain: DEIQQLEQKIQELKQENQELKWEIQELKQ

[29] = biological target: T29, 4H780-bN; test: two-hybrid library CCNG1
T29 chain: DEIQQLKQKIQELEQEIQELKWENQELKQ

[30] = biological target: T30, 4H3926-bN; test: two-hybrid library CCNG1
T30 chain: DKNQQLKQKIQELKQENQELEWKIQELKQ

[31] = biological target: T31, 4H457-bN; test: two-hybrid library CCNG1
T31 chain: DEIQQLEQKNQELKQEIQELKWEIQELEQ

[32] = biological target: T32, 4H3112-bN; test: two-hybrid library CCNG1
T32 chain: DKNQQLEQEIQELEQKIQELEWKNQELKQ

[33] = biological target: T33, 4H754-bN; test: two-hybrid library CCNG1
T33 chain: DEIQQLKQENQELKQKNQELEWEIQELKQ

[34] = biological target: T34, 4H3010-bN; test: two-hybrid library CCNG1
T34 chain: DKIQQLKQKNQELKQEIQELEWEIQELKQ

[35] = biological target: T35, 4H3427-bN; test: two-hybrid library CCNG1
T35 chain: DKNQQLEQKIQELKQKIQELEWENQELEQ

[36] = biological target: T36, 4H683-bN; test: two-hybrid library CCNG1
T36 chain: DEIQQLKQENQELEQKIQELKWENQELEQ

B1: O16-bN (peptide)
chain: DKIQQLKQKNQELKQEIQELEWKNQELKQ
interaction score [1]: -0.976
interaction score [2]: -2.84
interaction score [3]: -0.113
interaction score [4]: 0.95
interaction score [5]: -0.0984
interaction score [6]: -0.333
interaction score [7]: 0.821
interaction score [8]: 0.145
interaction score [9]: -0.944

B2: O4-AA (peptide)
chain: DKIAALKAEIAALEAKNAALKAKNAALKG
interaction score [10]: -0.641
interaction score [11]: -0.869
interaction score [12]: -0.0762
interaction score [13]: -1.16
interaction score [14]: -0.637
interaction score [15]: -1.05
interaction score [16]: -1.28

Other lines, results leading:

interaction score [17]: -1.98
interaction score [18]: 0.211
interaction score [19]: 2.08
B3: P7bHq (peptide)
chain: DEIQELEKKNEELKREIWELEKKNQELKQ

interaction score [20]: -0.212
interaction score [21]: -1.49
interaction score [22]: 1.44
interaction score [23]: 2.14
interaction score [24]: 1.31
interaction score [25]: 0.189
interaction score [26]: -0.128
interaction score [27]: -0.0124
interaction score [28]: -0.668
interaction score [29]: -0.44
interaction score [30]: 0.223
interaction score [31]: 1.25
interaction score [32]: -0.298
interaction score [33]: -1.18
interaction score [34]: 2.05
interaction score [35]: -0.588
interaction score [36]: 0.0387
B4: 4H2702-bN (peptide)
chain: DKIQQLKQENQELEQEIQELKWKIQELKQ

Source: article PMC10397247
